Test results published in US20220356258A1 (Boehringer Ingelheim, published 2022).

How the values were obtained:
[1] = target: T1, protein A/G (immobilized on the SPR sensor chip); assay: SPR, first step: capture on protein A/G immobilized on the sensor chip
T1 construct: Capture protein in the first step of the IL36R SPR assay; also called protein A/G sensor chip

FcRn = target: T2, FcRn (Homo sapiens (Human), UniProt P55899 24-297; P61769 21-119); assay: SPR, FcRn binding
T2 construct: In nature it is a heterodimer of the FcRn alpha chain and beta-2-microglobulin; also called neonatal Fc receptor; copies: 1 + 1

IL-36 receptor (IL-36R) [2] = target: T3, IL-36 receptor (IL-36R) (UniProt Q9HB29 20-335, limits assumed); assay: SPR, second step: IL36R binding activity of the species bound to protein A/G
T3 construct: also called IL-1Rrp2
T3 sequence (looked up): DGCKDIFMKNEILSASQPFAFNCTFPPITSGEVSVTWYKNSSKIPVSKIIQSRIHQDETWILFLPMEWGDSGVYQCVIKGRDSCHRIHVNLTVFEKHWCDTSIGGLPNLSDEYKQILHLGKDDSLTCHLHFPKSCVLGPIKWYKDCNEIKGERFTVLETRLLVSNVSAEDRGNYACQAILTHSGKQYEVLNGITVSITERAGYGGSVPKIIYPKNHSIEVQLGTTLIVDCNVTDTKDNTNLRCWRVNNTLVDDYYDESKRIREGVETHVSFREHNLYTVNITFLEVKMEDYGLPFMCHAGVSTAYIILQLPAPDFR

IL-36 receptor (IL-36R) [3] = target: T3, IL-36 receptor (IL-36R); assay: cell-based or functional assay

T2 sequence (P55899 24-297 limits assumed, form in doubt, chain 1 of 2): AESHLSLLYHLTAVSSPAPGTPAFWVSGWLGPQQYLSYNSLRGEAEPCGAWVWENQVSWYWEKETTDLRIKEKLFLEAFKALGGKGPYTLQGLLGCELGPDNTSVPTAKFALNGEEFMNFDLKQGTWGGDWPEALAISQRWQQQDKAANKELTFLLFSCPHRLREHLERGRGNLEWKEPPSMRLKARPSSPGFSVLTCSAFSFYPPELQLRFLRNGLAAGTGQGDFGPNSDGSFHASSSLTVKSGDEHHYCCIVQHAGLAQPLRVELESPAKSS
T2 sequence (P61769 21-119 limits assumed, form in doubt, chain 2 of 2): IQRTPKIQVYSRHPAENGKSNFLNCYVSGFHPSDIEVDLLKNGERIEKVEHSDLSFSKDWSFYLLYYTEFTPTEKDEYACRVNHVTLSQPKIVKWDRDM

| Binder | Recovery [%] (amount of species binding to protein A/G) [1] | Binding [%] (FcRn binding, SPR) (FcRn) | Potency [%] (IL36R binding, SPR) (IL-36 receptor (IL-36R) [2]) | IL36R bioassay Potency [%] (IL-36 receptor (IL-36R) [3]) |
| --- | --- | --- | --- | --- |
| Spesolimab AP4 fraction (CEX acidic peak fraction AP4) (antibody, human IgG1, kappa, L234A L235A, Humanized IgG1 anti-IL-36R antibody from CHO-DG44 cells; Cation exchange fraction, RT 16.0-18.7 min, 0.5% of total CEX area; also called most acidic fraction AP4) heavy: not shown light: QIVLTQSPGTLSLSPGERATMTCTASSSVSSSYFHWYQQKPGQAPRLWIYRTSRLASGVPDRFSGSGSGTDFTLTISRLEPEDAATYYCHQFHRSPLTFGAGTKLEIKRTVAAPSVFIFPPSDEQLKSGTASVVCLLNNFYPREAKVQWKVDNALQSGNSQESVTEQDSKDSTYSLSSTLTLSKADYEKHKVYACEVTHQGLSSPVTKSFNRGEC | 75% | 69% | 93% | 60% |
| Spesolimab BP2 fraction (CEX basic peak fraction BP2) (antibody, human IgG1, kappa, L234A L235A, IgG1; Cation exchange fraction, RT 31.7-33.5 min, 2.4% of total CEX area) heavy: not shown light: QIVLTQSPGTLSLSPGERATMTCTASSSVSSSYFHWYQQKPGQAPRLWIYRTSRLASGVPDRFSGSGSGTDFTLTISRLEPEDAATYYCHQFHRSPLTFGAGTKLEIKRTVAAPSVFIFPPSDEQLKSGTASVVCLLNNFYPREAKVQWKVDNALQSGNSQESVTEQDSKDSTYSLSSTLTLSKADYEKHKVYACEVTHQGLSSPVTKSFNRGEC | 84% | 91% | 100% | 97% |
| Spesolimab CMC2 source (Drug Substance source material, unfractionated) (antibody, human IgG1, kappa, L234A L235A, Humanized monoclonal IgG1 anti-IL-36R antibody, CAS 2097104-58-8, produced in CHO-DG44 cells; This is the unfractionated material from which the CEX fractions were collected) heavy: not shown light: QIVLTQSPGTLSLSPGERATMTCTASSSVSSSYFHWYQQKPGQAPRLWIYRTSRLASGVPDRFSGSGSGTDFTLTISRLEPEDAATYYCHQFHRSPLTFGAGTKLEIKRTVAAPSVFIFPPSDEQLKSGTASVVCLLNNFYPREAKVQWKVDNALQSGNSQESVTEQDSKDSTYSLSSTLTLSKADYEKHKVYACEVTHQGLSSPVTKSFNRGEC | 93% | 94% | 101% | 91% |
| Spesolimab AP3b fraction (CEX acidic peak fraction AP3b) (antibody, human IgG1, kappa, L234A L235A, IgG1; Cation exchange fraction, RT 18.7-20.6 min, 0.8% of total CEX area) heavy: not shown light: QIVLTQSPGTLSLSPGERATMTCTASSSVSSSYFHWYQQKPGQAPRLWIYRTSRLASGVPDRFSGSGSGTDFTLTISRLEPEDAATYYCHQFHRSPLTFGAGTKLEIKRTVAAPSVFIFPPSDEQLKSGTASVVCLLNNFYPREAKVQWKVDNALQSGNSQESVTEQDSKDSTYSLSSTLTLSKADYEKHKVYACEVTHQGLSSPVTKSFNRGEC | 87% | 84% | 93% | 80% |
| Spesolimab AP3a fraction (CEX acidic peak fraction AP3a) (antibody, human IgG1, kappa, L234A L235A, IgG1; Cation exchange fraction, RT 20.6-22.7 min, 2.8% of total CEX area) heavy: not shown light: QIVLTQSPGTLSLSPGERATMTCTASSSVSSSYFHWYQQKPGQAPRLWIYRTSRLASGVPDRFSGSGSGTDFTLTISRLEPEDAATYYCHQFHRSPLTFGAGTKLEIKRTVAAPSVFIFPPSDEQLKSGTASVVCLLNNFYPREAKVQWKVDNALQSGNSQESVTEQDSKDSTYSLSSTLTLSKADYEKHKVYACEVTHQGLSSPVTKSFNRGEC | 88% | 88% | 98% | 91% |
| Spesolimab AP2 fraction (CEX acidic peak fraction AP2) (antibody, human IgG1, kappa, L234A L235A, IgG1; Cation exchange fraction, RT 22.7-24.1 min, 2.4% of total CEX area) heavy: not shown light: QIVLTQSPGTLSLSPGERATMTCTASSSVSSSYFHWYQQKPGQAPRLWIYRTSRLASGVPDRFSGSGSGTDFTLTISRLEPEDAATYYCHQFHRSPLTFGAGTKLEIKRTVAAPSVFIFPPSDEQLKSGTASVVCLLNNFYPREAKVQWKVDNALQSGNSQESVTEQDSKDSTYSLSSTLTLSKADYEKHKVYACEVTHQGLSSPVTKSFNRGEC | 90% |  | 99% | 94% |
| Spesolimab AP1c fraction (CEX acidic peak fraction AP1c) (antibody, human IgG1, kappa, L234A L235A, IgG1; Cation exchange fraction, RT 24.1-26.0 min, 2.2% of total CEX area) heavy: not shown light: QIVLTQSPGTLSLSPGERATMTCTASSSVSSSYFHWYQQKPGQAPRLWIYRTSRLASGVPDRFSGSGSGTDFTLTISRLEPEDAATYYCHQFHRSPLTFGAGTKLEIKRTVAAPSVFIFPPSDEQLKSGTASVVCLLNNFYPREAKVQWKVDNALQSGNSQESVTEQDSKDSTYSLSSTLTLSKADYEKHKVYACEVTHQGLSSPVTKSFNRGEC | 90% | 90% | 100% | 102% |
| Spesolimab AP1b fraction (CEX acidic peak fraction AP1b) (antibody, human IgG1, kappa, L234A L235A, IgG1; Cation exchange fraction, RT 26.0-27.3 min, 7.6% of total CEX area) heavy: not shown light: QIVLTQSPGTLSLSPGERATMTCTASSSVSSSYFHWYQQKPGQAPRLWIYRTSRLASGVPDRFSGSGSGTDFTLTISRLEPEDAATYYCHQFHRSPLTFGAGTKLEIKRTVAAPSVFIFPPSDEQLKSGTASVVCLLNNFYPREAKVQWKVDNALQSGNSQESVTEQDSKDSTYSLSSTLTLSKADYEKHKVYACEVTHQGLSSPVTKSFNRGEC | 92% | 89% | 100% | 99% |
| Spesolimab AP1a fraction (CEX acidic peak fraction AP1a) (antibody, human IgG1, kappa, L234A L235A, IgG1; Cation exchange fraction, RT 27.3-28.2 min, 13.6% of total CEX area) heavy: not shown light: QIVLTQSPGTLSLSPGERATMTCTASSSVSSSYFHWYQQKPGQAPRLWIYRTSRLASGVPDRFSGSGSGTDFTLTISRLEPEDAATYYCHQFHRSPLTFGAGTKLEIKRTVAAPSVFIFPPSDEQLKSGTASVVCLLNNFYPREAKVQWKVDNALQSGNSQESVTEQDSKDSTYSLSSTLTLSKADYEKHKVYACEVTHQGLSSPVTKSFNRGEC | 93% | 92% | 99% | 102% |
| Spesolimab MP fraction (CEX main peak fraction) (antibody, human IgG1, kappa, L234A L235A, IgG1) heavy: not shown light: QIVLTQSPGTLSLSPGERATMTCTASSSVSSSYFHWYQQKPGQAPRLWIYRTSRLASGVPDRFSGSGSGTDFTLTISRLEPEDAATYYCHQFHRSPLTFGAGTKLEIKRTVAAPSVFIFPPSDEQLKSGTASVVCLLNNFYPREAKVQWKVDNALQSGNSQESVTEQDSKDSTYSLSSTLTLSKADYEKHKVYACEVTHQGLSSPVTKSFNRGEC | 95% | 95% | 102% | 110% |
| Spesolimab BP1 fraction (CEX basic peak fraction BP1) (antibody, human IgG1, kappa, L234A L235A, IgG1; Cation exchange fraction, RT 30.2-31.7 min, 3.75% of total CEX area) heavy: not shown light: QIVLTQSPGTLSLSPGERATMTCTASSSVSSSYFHWYQQKPGQAPRLWIYRTSRLASGVPDRFSGSGSGTDFTLTISRLEPEDAATYYCHQFHRSPLTFGAGTKLEIKRTVAAPSVFIFPPSDEQLKSGTASVVCLLNNFYPREAKVQWKVDNALQSGNSQESVTEQDSKDSTYSLSSTLTLSKADYEKHKVYACEVTHQGLSSPVTKSFNRGEC | 93% | 95% | 100% | 97% |
| Spesolimab BP3 fraction (CEX basic peak fraction BP3) (antibody, human IgG1, kappa, L234A L235A, IgG1; Cation exchange fraction, RT 33.5-36.2 min, 1.3% of total CEX area; also called most basic fraction BP3) heavy: not shown light: QIVLTQSPGTLSLSPGERATMTCTASSSVSSSYFHWYQQKPGQAPRLWIYRTSRLASGVPDRFSGSGSGTDFTLTISRLEPEDAATYYCHQFHRSPLTFGAGTKLEIKRTVAAPSVFIFPPSDEQLKSGTASVVCLLNNFYPREAKVQWKVDNALQSGNSQESVTEQDSKDSTYSLSSTLTLSKADYEKHKVYACEVTHQGLSSPVTKSFNRGEC | 70% |  | 100% |  |
